The results in this text go back to patent US20130095092A1.

In the test the target is Mannose 6-phosphate receptor (M6P receptor) on human MPS IIIB (NaGlu deficient) fibroblasts (human), P11717. In words: cell-based or functional assay.
Chain of Mannose 6-phosphate receptor (M6P receptor) on human MPS IIIB (NaGlu deficient) fibroblasts (human), P11717 (P11717 41-2491): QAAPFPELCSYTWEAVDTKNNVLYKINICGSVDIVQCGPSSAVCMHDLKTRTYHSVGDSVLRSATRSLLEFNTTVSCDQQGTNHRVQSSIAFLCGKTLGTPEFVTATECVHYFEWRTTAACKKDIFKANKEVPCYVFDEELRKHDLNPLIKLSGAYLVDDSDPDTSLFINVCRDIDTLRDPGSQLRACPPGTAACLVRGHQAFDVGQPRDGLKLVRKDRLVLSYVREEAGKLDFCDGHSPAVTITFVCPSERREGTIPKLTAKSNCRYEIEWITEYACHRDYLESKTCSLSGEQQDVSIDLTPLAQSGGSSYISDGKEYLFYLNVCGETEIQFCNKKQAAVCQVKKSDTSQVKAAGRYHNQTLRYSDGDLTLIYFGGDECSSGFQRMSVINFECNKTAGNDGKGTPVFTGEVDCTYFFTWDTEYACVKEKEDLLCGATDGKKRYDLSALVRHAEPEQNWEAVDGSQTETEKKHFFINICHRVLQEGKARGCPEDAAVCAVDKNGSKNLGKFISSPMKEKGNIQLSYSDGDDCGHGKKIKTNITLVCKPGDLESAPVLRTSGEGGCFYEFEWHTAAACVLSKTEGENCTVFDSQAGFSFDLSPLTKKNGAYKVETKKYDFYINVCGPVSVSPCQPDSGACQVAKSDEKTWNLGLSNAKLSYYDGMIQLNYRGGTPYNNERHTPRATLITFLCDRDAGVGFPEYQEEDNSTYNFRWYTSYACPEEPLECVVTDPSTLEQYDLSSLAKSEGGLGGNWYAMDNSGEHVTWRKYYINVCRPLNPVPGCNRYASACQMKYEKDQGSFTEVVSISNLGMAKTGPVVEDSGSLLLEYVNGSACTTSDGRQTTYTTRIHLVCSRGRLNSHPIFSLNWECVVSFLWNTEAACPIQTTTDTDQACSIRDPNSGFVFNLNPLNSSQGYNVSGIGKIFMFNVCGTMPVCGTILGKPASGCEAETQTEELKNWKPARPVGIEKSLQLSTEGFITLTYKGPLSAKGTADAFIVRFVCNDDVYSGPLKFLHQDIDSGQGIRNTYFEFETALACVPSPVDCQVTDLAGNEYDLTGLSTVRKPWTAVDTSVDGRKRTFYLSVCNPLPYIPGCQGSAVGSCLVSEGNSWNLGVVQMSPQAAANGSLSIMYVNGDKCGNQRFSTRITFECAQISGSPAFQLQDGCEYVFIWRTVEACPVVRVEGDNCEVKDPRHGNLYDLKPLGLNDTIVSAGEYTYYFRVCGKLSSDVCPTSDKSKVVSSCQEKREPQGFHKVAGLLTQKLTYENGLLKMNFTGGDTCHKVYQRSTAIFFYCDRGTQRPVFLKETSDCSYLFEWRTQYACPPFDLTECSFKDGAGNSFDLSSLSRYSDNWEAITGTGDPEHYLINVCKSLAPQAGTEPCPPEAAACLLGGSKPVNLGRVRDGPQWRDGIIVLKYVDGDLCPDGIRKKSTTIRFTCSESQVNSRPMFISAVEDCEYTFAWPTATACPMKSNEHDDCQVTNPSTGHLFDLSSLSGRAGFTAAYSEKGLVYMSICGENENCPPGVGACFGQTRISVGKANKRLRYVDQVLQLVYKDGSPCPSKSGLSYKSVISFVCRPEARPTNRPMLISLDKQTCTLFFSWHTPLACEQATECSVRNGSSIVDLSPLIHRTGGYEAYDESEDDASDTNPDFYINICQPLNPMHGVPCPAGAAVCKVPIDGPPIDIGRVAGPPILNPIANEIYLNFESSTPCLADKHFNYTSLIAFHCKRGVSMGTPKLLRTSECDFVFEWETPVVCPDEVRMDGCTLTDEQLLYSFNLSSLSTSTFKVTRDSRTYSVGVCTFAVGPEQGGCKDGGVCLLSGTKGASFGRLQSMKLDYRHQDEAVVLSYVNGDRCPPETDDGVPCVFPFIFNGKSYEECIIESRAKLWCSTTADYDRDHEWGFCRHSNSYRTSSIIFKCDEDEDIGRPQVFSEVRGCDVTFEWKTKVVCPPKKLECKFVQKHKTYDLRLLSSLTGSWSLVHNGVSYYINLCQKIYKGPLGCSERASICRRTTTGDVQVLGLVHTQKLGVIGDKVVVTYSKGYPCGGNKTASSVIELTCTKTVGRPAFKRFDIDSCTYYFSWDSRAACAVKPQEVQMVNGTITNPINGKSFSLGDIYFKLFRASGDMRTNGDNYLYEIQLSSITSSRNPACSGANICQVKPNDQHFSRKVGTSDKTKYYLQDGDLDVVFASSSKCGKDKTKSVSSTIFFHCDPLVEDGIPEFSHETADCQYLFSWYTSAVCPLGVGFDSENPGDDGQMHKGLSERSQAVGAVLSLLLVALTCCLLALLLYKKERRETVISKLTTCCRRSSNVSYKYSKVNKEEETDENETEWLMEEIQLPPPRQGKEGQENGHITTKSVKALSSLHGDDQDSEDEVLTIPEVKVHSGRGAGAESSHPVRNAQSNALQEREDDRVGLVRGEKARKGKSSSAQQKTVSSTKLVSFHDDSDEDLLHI

B1: recombinant human N-acetyl-alpha-D-glucosaminidase (rhNaGlu) produced from a transgenic avian (Gallus), P54802 24-743 (enzyme)
chain: DEAREAAAVRALVARLLGPGPAADFSVSVERALAAKPGLDTYSLGGGGAARVRVRGSTGVAAAAGLHRYLRDFCGCHVAWSGSQLRLPRPLPAVPGELTEATPNRYRYYQNVCTQSYSFVWWDWARWEREIDWMALNGINLALAWSGQEAIWQRVYLALGLTQAEINEFFTGPAFLAWGRMGNLHTWDGPLPPSWHIKQLYLQHRVLDQMRSFGMTPVLPAFAGHVPEAVTRVFPQVNVTKMGSWGHFNCSYSCSFLLAPEDPIFPIIGSLFLRELIKEFGTDHIYGADTFNEMQPPSSEPSYLAAATTAVYEAMTAVDTEAVWLLQGWLFQHQPQFWGPAQIRAVLGAVPRGRLLVLDLFAESQPVYTRTASFQGQPFIWCMLHNFGGNHGLFGALEAVNGGPEAARLFPNSTMVGTGMAPEGISQNEVVYSLMAELGWRKDPVPDLAAWVTSFAARRYGVSHPDAGAAWRLLLRSVYNCSGEACRGHNRSPLVRRPSLQMNTSIWYNRSDVFEAWRLLLTSAPSLATSPAFRYDLLDLTRQAVQELVSLYYEEARSAYLSKELASLLRAGGVLAYELLPALDEVLASDSRFLLGSWLEQARAAAVSEAEADFYEQNSRYQLTLWGPEGNILDYANKQLAGLVANYYTPRWRLFLEALVDSVAQGIPFQQHQFDKNVFQLEQAFVLSKQRYPSQPRGDTVDLAKKIFLKYYPRWVAGSW
modifications: here or on the partner: glycosylated; glycans carry mannose-6-phosphate (3.2 moles of M6P per mole of protein), glycosylation sites not stated
For the molecule B1, the M6P inhibition assay: concentration of free M6P monosaccharide that inhibits uptake of 30 µg/mL rhNaGlu into MPS IIIB fibroblasts (enzymatic activity) is > 0.03 mM; the M6P inhibition assay: inhibition of cellular uptake of 30 µg/mL rhNaGlu into MPS IIIB fibroblasts by 1 mM free M6P (% inhibition of uptake) is > 90; the NaGlu activity in MPS IIIB fibroblasts after 24 h uptake of rhNaGlu, relative to wild-type fibroblasts (% of wild-type activity) turned out to be 50.
